Laboratory results reported in PMC9913320, “Development of ^99mTc-Hynic-Adh-1 Molecular Probe Specifically Targeting N-Cadherin and Its Preliminary Experimental Study in Monitoring Drug Resistance of Non-Small-Cell Lung Cancer” (Cancers, 2023).

Tests used:
[1] = In vitro stability in FBS; format: in vitro ADME; conditions: room temperature
Method: In vitro stability studies of ^99mTc-HYNIC-ADH1 were performed in FBS as well as PBS solution. A total of 50 μL of ^99mTc-HYNIC-ADH1 was mixed with 950 μL of FBS (or PBS), and its radioactivity was measured after being incubated at room temperature for 0.5, 1, 2, 4, 6 and 24 h, respectively.
For stability assessments, ^99mTc-HYNIC-ADH-1 (3.7 MBq) was incubated in PBS (pH 7.4) or FBS for 24 h. […] The radiochemical purities were 98.51%, 98.50%, 97.97%, 98.02%, 98.81%, 98.09% and 98.09% in FBS at room temperature at 0.5, 1, 2, 3, 6, 12 and 24 h, respectively.

[2] = Biodistribution in normal mice; format: in vivo, C57/BL6 mice; conditions: for tissue uptake at 0.5 h / tissue uptake at 1 h / tissue uptake at 2 h / tissue uptake at 4 h: i.v.; for tissue uptake at 0.5 h: 30 min; for tissue uptake at 1 h: 60 min; for tissue uptake at 2 h: 120 min; for tissue uptake at 4 h: 240 min
Method: (§1) The radiotracer (0.1 mL, 0.74 MBq) was injected intravenously into normal C57/BL6 mice and xenograft models as previously described (n = 4 per group per time) via the tail vein. After different time intervals (30, 60, 120 and 240 min), the mice were sacrificed by cervical dislocation, and their blood, tumors and major organs (brain, heart, lung, liver, spleen, kidney, stomach, intestine, muscle, bone and skin) were harvested and weighed. The radioactivity of each sample was measured with a γ-counter. Values are shown as the percentage of the injected dose per gram (%ID/g), which corrected for background and decay to maintain consistency.

[3] = Biodistribution in xenograft-bearing nude mice, PC9GR tumor; format: in vivo, BALB/c nude mice; conditions: mouse, iv, 0.74 MBq, xenograft-bearing nude mice, i.v., read-out: Biodistribution, T(PC9GR)
Method: (§2) All animal research was performed in accordance with the Zhejiang University Institutional Animal Care and Use Committee guidelines. PC9 and PC9GR cells (2 × 10^6 cells per mice) were injected subcutaneously into the flanks of 2- to 4-week old BALB/c nude mice (left: PC9GR, right: PC9). The cells were allowed to grow 3–5 weeks until tumors were 1 ± 0.5 cm^3 in volume. Normal C57/BL6 mice (aged 6 to 8 wks old) were obtained from the Animal Center of the First Affiliated Hospital of Zhejiang University. All animals were maintained with free access to food and water and used a standard diet, bedding and environment.
as §1

PC9GR tumor = assay: as above; format: in vivo, BALB/c nude mice; conditions: biodistribution, tumor-bearing mice
Method: as §2, §1

[4] = Biodistribution in xenograft-bearing nude mice, PC9 tumor; format: in vivo, BALB/c nude mice; conditions: mouse, tumor (PC9), iv, 0.74 MBq, xenograft-bearing nude mice, i.v., read-out: Biodistribution, T(PC9)
Method: as §2, §1

PC9 tumor = assay: as above; format: in vivo, BALB/c nude mice; conditions: biodistribution, tumor-bearing mice
Method: as §2, §1

[5] = mouse, blood, iv, 0.74 MBq, normal C57/BL6 mice, read-out: Biodistribution, Blood
[6] = mouse, bone, iv, 0.74 MBq, normal C57/BL6 mice, read-out: Biodistribution, Bone
[7] = mouse, brain, iv, 0.74 MBq, normal C57/BL6 mice, read-out: Biodistribution, Brain
[8] = mouse, heart, iv, 0.74 MBq, normal C57/BL6 mice, read-out: Biodistribution, Heart
[9] = mouse, intestine, iv, 0.74 MBq, normal C57/BL6 mice, read-out: Biodistribution, Intestine
[10] = mouse, kidney, iv, 0.74 MBq, normal C57/BL6 mice, read-out: Biodistribution, Kidney
[11] = mouse, liver, iv, 0.74 MBq, normal C57/BL6 mice, read-out: Biodistribution, Liver
[12] = mouse, lung, iv, 0.74 MBq, normal C57/BL6 mice, read-out: Biodistribution, Lung
[13] = mouse, muscle, iv, 0.74 MBq, normal C57/BL6 mice, read-out: Biodistribution, Muscle
[14] = mouse, skin, iv, 0.74 MBq, normal C57/BL6 mice, read-out: Biodistribution, Skin
[15] = mouse, spleen, iv, 0.74 MBq, normal C57/BL6 mice, read-out: Biodistribution, Spleen
[16] = mouse, stomach, iv, 0.74 MBq, normal C57/BL6 mice, read-out: Biodistribution, Stomach

Compound `CC(=O)N[C@H]1CSSC[C@@H](C(=O)NCCNC(=O)c2ccc(NN)nc2)NC(=O)[C@H](C(C)C)NC(=O)[C@H](C)NC(=O)[C@H](Cc2c[nH]cn2)NC1=O` [^99mTc-HYNIC-ADH-1, metal not drawn] has a radiochemical purity ([1]; 0.5 h) of 98.51%, a radiochemical purity ([1]; 1 h) of 98.50% and a radiochemical purity ([1]; 2 h) of 97.97%. It also gave a radiochemical purity ([1]; 3 h) of 98.02%, a radiochemical purity ([1]; 6 h) of 98.81% and a radiochemical purity ([1]; 12 h) of 98.09%. For the same compound, the “crossing of the blood–brain barrier” value ([2]; from biodistribution: no obvious distribution in the brain) was “could not cross the blood–brain barrier”, the tissue uptake at 0.5 h [2, 5] was 3.31 ± 0.37 %ID/g and the tissue uptake at 1 h [2, 5] was 1.23 ± 0.07 %ID/g. The tissue uptake at 2 h [2, 5] was 0.84 ± 0.19 %ID/g, the tissue uptake at 4 h [2, 5] was 0.58 ± 0.08 %ID/g and the tissue uptake at 0.5 h [2, 6] was 1.45 ± 0.11 %ID/g. For the same compound, the tissue uptake at 1 h [2, 6] was 0.61 ± 0.14 %ID/g, the tissue uptake at 2 h [2, 6] was 0.58 ± 0.3 %ID/g and the tissue uptake at 4 h [2, 6] was 0.44 ± 0.15 %ID/g. It also gave a tissue uptake at 0.5 h [2, 7] of 0.18 ± 0.05 %ID/g, a tissue uptake at 1 h [2, 7] of 0.09 ± 0.02 %ID/g and a tissue uptake at 2 h [2, 7] of 0.1 ± 0.02 %ID/g. It also gave a tissue uptake at 4 h [2, 7] of 0.08 ± 0.05 %ID/g, a tissue uptake at 0.5 h [2, 8] of 1.71 ± 0.3 %ID/g and a tissue uptake at 1 h [2, 8] of 0.49 ± 0.29 %ID/g. The tissue uptake at 2 h [2, 8] was 0.43 ± 0.07 %ID/g, the tissue uptake at 4 h [2, 8] was 0.32 ± 0.04 %ID/g and the tissue uptake at 0.5 h [2, 9] was 2.96 ± 0.3 %ID/g. It also gave a tissue uptake at 1 h [2, 9] of 2.14 ± 0.43 %ID/g, a tissue uptake at 2 h [2, 9] of 1.78 ± 0.2 %ID/g and a tissue uptake at 4 h [2, 9] of 1.26 ± 0.33 %ID/g. For the same compound, the tissue uptake at 5 min ([2]; mouse, kidney, iv, 0.74 MBq, normal C57/BL6 mice, 5 min) was 22.1 ± 1.15 %ID/g, the tissue uptake at 0.25 h ([2]; mouse, kidney, iv, 0.74 MBq, normal C57/BL6 mice, 15 min) was 12 ± 0.73 %ID/g and the tissue uptake at 0.5 h [2, 10] was 12.1 ± 0.47 %ID/g. For the same compound, the tissue uptake at 1 h [2, 10] was 9.01 ± 0.76 %ID/g, the tissue uptake at 2 h [2, 10] was 6.46 ± 0.3 %ID/g and the tissue uptake at 4 h [2, 10] was 6.16 ± 0.51 %ID/g. The tissue uptake at 0.5 h [2, 11] was 1.95 ± 0.17 %ID/g, the tissue uptake at 1 h [2, 11] was 1.06 ± 0.2 %ID/g and the tissue uptake at 2 h [2, 11] was 0.86 ± 0.15 %ID/g. For the same compound, the tissue uptake at 4 h [2, 11] was 0.68 ± 0.12 %ID/g, the tissue uptake at 0.5 h [2, 12] was 3.83 ± 0.12 %ID/g and the tissue uptake at 1 h [2, 12] was 1.7 ± 0.14 %ID/g. For the same compound, the tissue uptake at 2 h [2, 12] was 1.54 ± 0.56 %ID/g, the tissue uptake at 4 h [2, 12] was 1.08 ± 0.27 %ID/g and the tissue uptake at 0.5 h [2, 13] was 1.55 ± 0.8 %ID/g. For the same compound, the tissue uptake at 1 h [2, 13] was 0.44 ± 0.08 %ID/g, the tissue uptake at 2 h [2, 13] was 0.52 ± 0.29 %ID/g and the tissue uptake at 4 h [2, 13] was 0.42 ± 0.21 %ID/g. For the same compound, the tissue uptake at 0.5 h [2, 14] was 3.45 ± 0.44 %ID/g, the tissue uptake at 1 h [2, 14] was 1.9 ± 0.58 %ID/g and the tissue uptake at 2 h [2, 14] was 1.69 ± 0.4 %ID/g. It also gave a tissue uptake at 4 h [2, 14] of 1.05 ± 0.18 %ID/g, a tissue uptake at 0.5 h [2, 15] of 1.25 ± 0.1 %ID/g and a tissue uptake at 1 h [2, 15] of 0.73 ± 0.24 %ID/g. For the same compound, the tissue uptake at 2 h [2, 15] was 0.53 ± 0.12 %ID/g, the tissue uptake at 4 h [2, 15] was 0.45 ± 0.11 %ID/g and the tissue uptake at 0.5 h [2, 16] was 2.24 ± 0.42 %ID/g. It also gave a tissue uptake at 1 h [2, 16] of 0.94 ± 0.23 %ID/g, a tissue uptake at 2 h [2, 16] of 0.66 ± 0.09 %ID/g and a tissue uptake at 4 h [2, 16] of 1.28 ± 0.43 %ID/g. It also gave a tissue uptake at 2 h ([3]; tumor (PC9GR), 120 min) of 1.32 ± 0.08 %ID/g, a tissue uptake at 0.5 h ([3]; tumor, 30 min) of 1.09 ± 0.15 %ID/g and a tissue uptake at 1 h ([3]; tumor, 60 min) of 1.26 ± 0.1 %ID/g. For the same compound, the tissue uptake at 4 h ([3]; tumor, 240 min) was 0.75 ± 0.19 %ID/g, the “T/NT PC9GR/Kidney” value (PC9GR tumor; 30 min) was 0.42 ± 0.10 and the “T/NT PC9GR/Liver” value (PC9GR tumor; 30 min) was 1.64 ± 0.24. The “T/NT PC9GR/Muscle” value (PC9GR tumor; 30 min) was 2.41 ± 0.12, the “T/NT PC9GR/Kidney” value (PC9GR tumor; 1 h) was 0.27 ± 0.04 and the “T/NT PC9GR/Liver” value (PC9GR tumor; 1 h) was 1.58 ± 0.12. For the same compound, the “T/NT PC9GR/Muscle” value (PC9GR tumor; 1 h) was 2.64 ± 0.47, the “T/NT PC9GR/Kidney” value (PC9GR tumor; 2 h) was 0.49 ± 0.20 and the “T/NT PC9GR/Liver” value (PC9GR tumor; 2 h) was 2.14 ± 0.69. The “T/NT PC9GR/Muscle” value (PC9GR tumor; 2 h) was 5.19 ± 1.89, the “T/NT PC9GR/Kidney” value (PC9GR tumor; 4 h) was 0.26 ± 0.13 and the “T/NT PC9GR/Liver” value (PC9GR tumor; 4 h) was 1.36 ± 0.69. The “T/NT PC9GR/Muscle” value (PC9GR tumor; 4 h) was 3.62 ± 1.92, the tissue uptake at 0.5 h ([4]; 30 min) was 0.99 ± 0.15 %ID/g and the tissue uptake at 1 h ([4]; 60 min) was 0.91 ± 0.03 %ID/g. For the same compound, the tissue uptake at 2 h ([4]; 120 min) was 0.79 ± 0.06 %ID/g, the tissue uptake at 4 h ([4]; 240 min) was 0.64 ± 0.16 %ID/g and the “T/NT PC9/Kidney” value (PC9 tumor; 30 min) was 0.27 ± 0.06. For the same compound, the “T/NT PC9/Liver” value (PC9 tumor; 30 min) was 1.36 ± 0.15, the “T/NT PC9/Muscle” value (PC9 tumor; 30 min) was 1.97 ± 0.21 and the “T/NT PC9/Kidney” value (PC9 tumor; 1 h) was 0.27 ± 0.03. The “T/NT PC9/Liver” value (PC9 tumor; 1 h) was 1.58 ± 0.06, the “T/NT PC9/Muscle” value (PC9 tumor; 1 h) was 2.59 ± 0.34 and the “T/NT PC9/Kidney” value (PC9 tumor; 2 h) was 0.26 ± 0.06. The “T/NT PC9/Liver” value (PC9 tumor; 2 h) was 1.41 ± 0.21, the “T/NT PC9/Muscle” value (PC9 tumor; 2 h) was 3.36 ± 0.08 and the “T/NT PC9/Kidney” value (PC9 tumor; 4 h) was 0.25 ± 0.02. The “T/NT PC9/Liver” value (PC9 tumor; 4 h) was 1.01 ± 0.31 and the “T/NT PC9/Muscle” value (PC9 tumor; 4 h) was 2.78 ± 0.28.
